Here are results for one substance from article PMC10636138.

In the test the target is SARS-CoV-2 B.1 (Wuhan) RBD. Description: BLI.

One may read the Kd as a measure of binding affinity in units of concentration. High values mean weaker binding, low ones tighter binding. Turning to CR3022, the Kd was 22.1 nM.
